Assay [1] addresses T1, human TGFβ2, mature receptor-binding domain (human, UniProt P09858 303-414 (pig entry), The mature TGFβ2 is a disulfide-linked homodimer of this 112-residue chain. The 4A11 epitope spans both monomers (p-1207).).
T1 sequence: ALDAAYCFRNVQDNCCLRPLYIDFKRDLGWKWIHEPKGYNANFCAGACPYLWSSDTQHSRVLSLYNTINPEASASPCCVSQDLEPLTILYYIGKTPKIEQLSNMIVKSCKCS
Put plainly: cell-based or functional assay.

In assay [2] the target is T2, human TGFβ1, mature receptor-binding domain (human, UniProt P01137 279-390). Put plainly: cell-based or functional assay.
In assay [3] the target is T3, human TGFβ3, mature dimeric form (human, UniProt P10600 301-412).
T3 sequence: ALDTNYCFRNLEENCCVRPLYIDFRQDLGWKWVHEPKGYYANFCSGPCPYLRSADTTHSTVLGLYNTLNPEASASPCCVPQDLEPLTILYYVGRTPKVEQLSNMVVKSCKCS
Put plainly: cell-based or functional assay.

Assay [4] addresses T1, human TGFβ2, mature receptor-binding …. Put plainly: BIAcore T200. On the procedure: (§1) For binding affinity determinations of all humanized 2A10 antibodies, Surface Plasmon Resonance (SPR) measurement with a BIAcore™-T200 instrument was used. Briefly, series S CM5 biosensor chip with protein A was first applied to capture each humanized 2A10 variant to achieve approximately 100 response units (RU) on each flow cell, following by injection of 3-fold serial dilutions of human TGFβ1, TGFβ2 or TGFβ3 (0.02 nM to 5 nM) in HBS-EP buffer (0.01M HEPES pH 7.4, 0.15M NaCl, 3 mM EDTA and 0.05% v/v surfactant P20) at 25° C. with a flow rate of 50 μl/min for kinetics measurement. Association rates (ko.) and dissociation rates (koff) were calculated using a simple one-to-one Langmuir binding model (BIAcore T200 evaluation software version 2.0) to determine the equilibrium dissociation constant (KD), which was calculated as the ratio koff/kₒₙ.
(§2) Binding affinity determinations of all humanized 4A11 antibodies were performed using SPR measurement with a BIAcore™-T200 instrument, as described above in Example 6 ([…]).
For orientation: Surface plasmon resonance follows binding to a sensor surface in real time, without labels.

In assay [5] the target is T3, human TGFβ3, mature dimeric form. Nature of the assay: BIAcore T200. On the procedure:
as §1, §2

For assay [6], the target named is T1, human TGFβ2, mature receptor-binding …. Put plainly: cell-based or functional assay. The source holds these as a separate data set.
For assay [7], the target named is T2, human TGFβ1, mature receptor-binding …. Nature of the assay: cell-based or functional assay. This is another data set of the same source.
For assay [8], the target named is T3, human TGFβ3, mature dimeric form. Put plainly: cell-based or functional assay. The source holds these as a separate data set.
For assay [9], the target named is T1, human TGFβ2, mature receptor-binding …. Nature of the assay: cell-based or functional assay. This is another data set of the same source.

Positions count from the first letter of the chain named. Like-named read-outs stand apart in the source and are kept apart here.

T2 sequence (P01137 279-390 limits assumed): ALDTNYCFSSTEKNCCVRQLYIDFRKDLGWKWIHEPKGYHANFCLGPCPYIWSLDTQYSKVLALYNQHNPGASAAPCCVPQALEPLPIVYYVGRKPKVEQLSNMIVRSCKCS

B1: h4A11.v7.4 (antibody, V domains shown)
VH: EQQLQESGPGLVKPSETLSLTCTVTGFSLSSYTVNWVRQPAGKGLEWIGYISYGGSAYYASWANGRFTISKDSSKNQVSLKLSSVTAADTAVYFCARHMQVGGAPTGSMAAFDPWGPGTLVTVSS
VL: EIVLTQSPGTLSLSPGERATLSCQSSQSVYNNNYLSWFQQKPGQPPRLLIYGASTLTSGVPDRFSGSGSGTDFTLTISRLEPEDFAVYYCAGGYSGSSDKYAFGGGTKVEIK
Regarding B1, the “HEKBlue TGFβ blocking IC50” value in assay [1] was 0.01 nM; in assay [2], over 200 nM; in assay [3] it was 0.05 nM. The Kd (as a rule, the concentration at which binding is half-saturated) was 0.0064 nM in [4] and 0.0043 nM in [5].

B2: h4A11.v7.7 (antibody, V domains shown)
VH: B1 VH
VL: B1 VL with I2A, V60I
Turning to B2, the “HEKBlue TGFβ blocking IC50” value is 0.04 nM in assay [1], over 200 nM in assay [2] and 0.04 nM in assay [3]. Besides, the figures for the Kd in [4] and in assay [5] were 0.0063 nM and 0.0061 nM, respectively.

B3: h4A11.v7.6 (antibody, V domains shown)
VH: B1 VH
VL: B1 VL with I2A, P45A
In the case of B3, the “HEKBlue TGFβ blocking IC50” value in [1] was 0.01 nM; in assay [2] it was over 200 nM; in assay [3] it was 0.01 nM. Further, the Kd in [4] is 0.0058 nM; in assay [5] it was 0.0065 nM.

B4: h6F12.v1.1 (antibody, human IgG1, kappa, N297G, V domains shown)
VH: EVTLKESGPVLVKPTETLTLTCTVSGFSLTTYNVHWVRQPPGKALEWMGLIWNTGGTRYNSALKSRLTISKDTSKSQVVLTMTNMDPVDTATYYCARDPVPNKWHFDFWGPGTLVTVSS
VL: DIQMTQSPSTLSASVGDRVTITCLASEDIYSNLAWYQQKPGKAPKLLIYDARSLQDGVPSRFSGSESGPEYTLTISSLQPDDFATYFCQQHHAYPFTFGQGTKVEIKR
In the case of B4, the entries for the “HEKBlue TGFβ blocking IC50” value in assay [6], in assay [7] and in [8] were 0.02 nM, over 200 nM and over 200 nM, respectively.

B5: h6F12.v1.2 (antibody, human IgG1, kappa, N297G, V domains shown)
VH: B4 VH
VL: B4 VL with A43S, E66G
In the case of B5, the figures for the “HEKBlue TGFβ blocking IC50” value in assay [6], in assay [7] and in assay [8] were 0.02 nM, over 200 nM and over 200 nM, respectively.

B6: h6F12.v1.3 (antibody, human IgG1, kappa, N297G, V domains shown)
VH: B4 VH
VL: B4 VL with A43S, P69T
In the case of B6, the “HEKBlue TGFβ blocking IC50” value was 0.01 nM in [6], over 200 nM in [7] and over 200 nM in assay [8].

B7: h6F12.v1.4 (antibody, human IgG1, kappa, N297G, V domains shown)
VH: B4 VH
VL: B4 VL with A43S, Y71F
For the molecule B7, the results for the “HEKBlue TGFβ blocking IC50” value in [6], in assay [7] and in assay [8] were 0.02 nM, over 200 nM and over 200 nM, respectively.

B8: h4A11.v7.8 (antibody, human IgG1, kappa, N297G)
heavy: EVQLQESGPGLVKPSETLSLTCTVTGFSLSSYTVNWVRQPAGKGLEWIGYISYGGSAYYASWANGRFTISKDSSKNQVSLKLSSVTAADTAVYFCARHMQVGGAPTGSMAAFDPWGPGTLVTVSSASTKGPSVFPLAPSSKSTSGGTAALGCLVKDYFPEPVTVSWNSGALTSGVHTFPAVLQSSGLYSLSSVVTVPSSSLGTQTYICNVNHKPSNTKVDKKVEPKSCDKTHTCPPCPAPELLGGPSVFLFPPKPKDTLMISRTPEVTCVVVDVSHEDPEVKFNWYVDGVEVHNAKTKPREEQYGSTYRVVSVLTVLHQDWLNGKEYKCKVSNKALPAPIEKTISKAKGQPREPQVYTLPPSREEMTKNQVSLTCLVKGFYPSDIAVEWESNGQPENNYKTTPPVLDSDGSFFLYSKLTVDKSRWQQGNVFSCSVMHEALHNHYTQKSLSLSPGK
light: EAVLTQSPGTLSLSPGERATLSCQSSQSVYNNNYLSWFQQKPGQPPRLLIYGASTLTSGVPDRFSGSGSGTDFTLTISRLEPEDFAVYYCAGGYSGSSDKYAFGGGTKVEIKRTVAAPSVFIFPPSDEQLKSGTASVVCLLNNFYPREAKVQWKVDNALQSGNSQESVTEQDSKDSTYSLSSTLTLSKADYEKHKVYACEVTHQGLSSPVTKSFNRGEC
On to B8, for which the “HEKBlue TGFβ blocking IC50” value in assay [1] is 0.06 nM; in assay [2] it was over 200 nM; in assay [3], 0.03 nM. For the same molecule, the Kd in assay [4] was 0.0045 nM; in assay [5], 0.0053 nM.

B9: h4A11.v7.1 (antibody, human IgG1, kappa, N297G)
heavy: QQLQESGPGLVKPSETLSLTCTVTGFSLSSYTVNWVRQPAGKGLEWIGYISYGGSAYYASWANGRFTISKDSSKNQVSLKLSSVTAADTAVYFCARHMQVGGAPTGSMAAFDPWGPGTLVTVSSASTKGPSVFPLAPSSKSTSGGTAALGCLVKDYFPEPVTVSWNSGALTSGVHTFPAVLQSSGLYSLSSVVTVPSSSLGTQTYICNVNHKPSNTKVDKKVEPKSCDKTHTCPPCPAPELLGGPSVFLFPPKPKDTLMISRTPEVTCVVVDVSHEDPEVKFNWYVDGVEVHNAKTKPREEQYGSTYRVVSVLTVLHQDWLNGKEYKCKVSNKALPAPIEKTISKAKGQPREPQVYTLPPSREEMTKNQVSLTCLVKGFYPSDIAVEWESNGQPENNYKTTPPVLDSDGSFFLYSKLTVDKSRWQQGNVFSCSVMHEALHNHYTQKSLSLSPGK
light: B8 light
For the molecule B9, the “HEKBlue TGFβ blocking IC50” value in assay [1] was 0.09 nM; in [2], over 33 nM; in assay [3] it was 0.03 nM.

B10: h4A11.v7.3 (antibody, human IgG1, kappa, N297G)
heavy: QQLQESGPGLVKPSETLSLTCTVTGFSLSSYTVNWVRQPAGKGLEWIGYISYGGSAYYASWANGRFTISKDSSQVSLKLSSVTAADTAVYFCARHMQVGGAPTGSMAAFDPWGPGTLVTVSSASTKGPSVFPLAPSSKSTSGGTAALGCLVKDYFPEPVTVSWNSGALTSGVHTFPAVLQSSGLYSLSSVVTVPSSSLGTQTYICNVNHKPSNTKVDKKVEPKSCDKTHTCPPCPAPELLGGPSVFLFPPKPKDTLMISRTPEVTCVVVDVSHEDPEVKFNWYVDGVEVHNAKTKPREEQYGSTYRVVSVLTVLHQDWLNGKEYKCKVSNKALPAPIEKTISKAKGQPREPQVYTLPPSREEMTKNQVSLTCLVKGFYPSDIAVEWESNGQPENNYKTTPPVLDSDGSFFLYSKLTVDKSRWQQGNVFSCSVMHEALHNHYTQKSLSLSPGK
light: B8 light
Consider B10, for which the “HEKBlue TGFβ blocking IC50” value in assay [1] was 0.03 nM; in assay [2] it was over 33 nM; in assay [3], 0.03 nM.

B11: h4A11.v7.2 (antibody, human IgG1, kappa, N297G)
heavy: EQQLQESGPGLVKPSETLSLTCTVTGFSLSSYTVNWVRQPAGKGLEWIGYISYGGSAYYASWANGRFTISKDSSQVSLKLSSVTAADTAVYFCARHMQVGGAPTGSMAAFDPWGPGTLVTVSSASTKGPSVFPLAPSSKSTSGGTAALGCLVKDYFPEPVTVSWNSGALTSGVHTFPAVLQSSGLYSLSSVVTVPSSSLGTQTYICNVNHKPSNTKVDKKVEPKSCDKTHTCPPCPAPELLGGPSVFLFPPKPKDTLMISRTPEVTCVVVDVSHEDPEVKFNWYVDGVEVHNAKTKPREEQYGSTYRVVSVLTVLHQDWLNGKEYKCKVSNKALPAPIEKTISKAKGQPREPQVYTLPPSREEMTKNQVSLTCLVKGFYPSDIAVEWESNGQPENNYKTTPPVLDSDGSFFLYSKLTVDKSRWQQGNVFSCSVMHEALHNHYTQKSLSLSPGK
light: B8 light
On to B11, for which the “HEKBlue TGFβ blocking IC50” value was 0.03 nM in assay [1], over 33 nM in assay [2] and 0.01 nM in assay [3].

B12: h4A11.v7.10 (antibody, human IgG1, kappa, N297G, V domains shown)
VH: B1 VH with F67V
VL: EAVLTQSPGTLSLSPGERATLSCQSSQSVYNNNYLSWFQQKPGQPPRLLIYGASTLTSGVPDRFSGSGSGTDFTLTISRLEPEDFAVYYCAGGYSGSSDKYAFGGGTKVEIKR
In the case of B12, the “HEKBlue TGFβ blocking IC50” value in [1] was 0.02 nM; in [2], over 200 nM; in assay [3] it was 0.02 nM. Further, the Kd in [4] turned out to be 0.0056 nM; in [5] it was 0.0068 nM.

B13: h4A11.v7.9 (antibody, human IgG1, kappa, N297G, V domains shown)
VH: B1 VH with V37I
VL: B12 VL
Consider B13, for which the “HEKBlue TGFβ blocking IC50” value in [1] was 0.08 nM; in assay [2] it was over 200 nM; in assay [3] it was 0.02 nM. Besides, the Kd was 0.0049 nM in assay [4] and 0.0057 nM in assay [5].

B14: h4A11.v7.14 (antibody, human IgG1, kappa, N297G, V domains shown)
VH: B1 VH with F94Y
VL: B12 VL
On to B14, for which the “HEKBlue TGFβ blocking IC50” value was 0.35 nM in assay [1], over 200 nM in assay [2] and 0.04 nM in assay [3]. Moreover, the dissociation constant Kd in [4] was 0.0049 nM; in assay [5], 0.0055 nM. Also, in assay [9], the “fold loss of blocking against h4A11.v7” value stood at 4 fold.

B15: h4A11.v7.15 (antibody, human IgG1, kappa, N297G)
heavy: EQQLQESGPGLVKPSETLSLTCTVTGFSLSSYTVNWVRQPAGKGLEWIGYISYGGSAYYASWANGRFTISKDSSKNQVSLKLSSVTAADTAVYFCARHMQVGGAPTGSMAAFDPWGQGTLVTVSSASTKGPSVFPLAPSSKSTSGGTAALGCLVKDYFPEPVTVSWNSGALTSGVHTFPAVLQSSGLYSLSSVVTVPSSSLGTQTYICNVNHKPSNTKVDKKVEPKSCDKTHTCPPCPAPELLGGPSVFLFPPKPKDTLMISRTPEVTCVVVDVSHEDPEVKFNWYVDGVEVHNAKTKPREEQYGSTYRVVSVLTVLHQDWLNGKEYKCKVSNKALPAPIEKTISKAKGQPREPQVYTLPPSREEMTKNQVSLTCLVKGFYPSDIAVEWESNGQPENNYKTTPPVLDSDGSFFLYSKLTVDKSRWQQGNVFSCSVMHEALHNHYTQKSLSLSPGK
light: B8 light
B15: the “HEKBlue TGFβ blocking IC50” value in [1] was 0.09 nM; in assay [2], over 200 nM; in [3] it was 0.02 nM. The results for the Kd in assay [4] and in assay [5] were 0.0047 nM and 0.0048 nM, respectively.

B16: h4A11.v7.12 (antibody, human IgG1, kappa, N297G, V domains shown)
VH: B1 VH with S73T
VL: B12 VL
As for B16, the “HEKBlue TGFβ blocking IC50” value in [1] was 0.01 nM; in [2], over 200 nM; in [3], 0.03 nM. For the same molecule, the results for the Kd in assay [4] and in [5] were 0.006 nM and 0.0065 nM, respectively.
